Drawing on US20240209076A1, this text covers cell based VEGF stimulated VEGFR reporter assay, average IC50 and Kd for 1 substance.

The target in one assay is VEGF (UniProt P15692). In words: cell-based or functional assay.
Assay [1] addresses VEGF-A165 (UniProt P15692). Description: Biacore SPR at 37 C, binder captured on Protein A chip, VEGF-A165 0.19 to 15 nM in five steps, 1:1 Langmuir fit. In general terms: In SPR one partner is held on a chip, and binding of the other changes the refractive index at the surface.
The target in assay [2] is VEGF-A165 (UniProt P15692). In words: Biacore T200 SPR at 37 C, binder captured on Protein A chip, VEGF-A165 0.19 to 15 nM in five steps, 60 min dissociation, 1:1 Langmuir fit.
VEGF-A165, sequence (P15692 other isoform, or with tags, fused parts or gaps limits assumed): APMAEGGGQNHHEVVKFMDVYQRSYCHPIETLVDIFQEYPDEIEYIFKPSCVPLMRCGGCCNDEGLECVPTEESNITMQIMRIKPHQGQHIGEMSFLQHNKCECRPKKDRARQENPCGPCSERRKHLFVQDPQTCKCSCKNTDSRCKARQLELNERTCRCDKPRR
For assay [3], the target named is VEGF-A165 (UniProt P15692). Description: SPR (Biacore T200), 37 C, binder captured on a Protein A chip, VEGF-A165 0.19 to 15 nM flowed over, 1:1 Langmuir fit.

Eylea (Fc fusion), sequence (chain): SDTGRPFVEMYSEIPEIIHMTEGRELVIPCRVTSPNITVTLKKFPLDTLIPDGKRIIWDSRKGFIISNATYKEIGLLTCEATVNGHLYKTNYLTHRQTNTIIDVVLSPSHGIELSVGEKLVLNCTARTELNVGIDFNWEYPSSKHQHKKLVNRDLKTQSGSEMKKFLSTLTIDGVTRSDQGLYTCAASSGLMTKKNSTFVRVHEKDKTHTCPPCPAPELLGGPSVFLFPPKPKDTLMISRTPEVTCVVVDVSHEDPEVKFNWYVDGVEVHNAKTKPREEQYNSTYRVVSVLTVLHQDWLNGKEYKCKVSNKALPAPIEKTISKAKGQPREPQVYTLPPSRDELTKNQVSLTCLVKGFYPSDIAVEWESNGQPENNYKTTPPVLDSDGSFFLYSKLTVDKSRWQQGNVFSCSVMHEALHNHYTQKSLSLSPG
VEGF, sequence (P15692 other isoform, or with tags, fused parts or gaps limits assumed): as the sequence (P15692 other isoform, or with tags, fused parts or gaps limits assumed) above

Substance Eylea (Fc fusion) returned a cell based VEGF stimulated VEGFR reporter assay, average IC50 with VEGF of 0.35 nM. Besides, the figures for the Kd with VEGF-A165 [1], with VEGF-A165 [2] and in the assay with VEGF-A165 [3] were 0.0157 nM, 5.35 pM and 6.22 pM, respectively.
